According to the Human Domainome abundance scans (Beltran et al. 2025):

B1: Tripartite motif-containing protein 6, residues 93 to 134; numbered along this chain, Q9C030 (parent)
chain: KAVLCADHGEKLQLFCQEDGKVICWLCERSQEHRGHHTFLVE
B2: Heterogeneous nuclear ribonucleoprotein U-like protein 2, residues 1 to 40; numbered along this chain, Q1KMD3 (parent)
chain: MEVKRLKVTELRSELQRRGLDSRGLKVDLAQRLQEALDAE

Variants of: B1
Assay: abundance fitness (aPCA) (normalised: wild type 0, dead -1); higher = more abundant; growth selection in yeast, the domain comes from the species named
Conditions: Homo sapiens

Abundance fitness: each site, then its substitutions
V41: I -0.246 | E 0.029 | A 0.16 | R 0.149 | Q 0.259 | C -0.165 | N 0.041 | W -0.043 | G -0.11 | S -0.051 | M -0.143 | L -0.034 | T 0.064 | P 0.036
L40: P 0.11 | H -0.062 | Q 0.224 | K -0.154 | T 0.041 | V -0.072 | W -0.112 | M 0.207 | N 0.115
E42: Y -0.421 | A -0.852 | D 0.094 | C -0.426 | T 0.216

Variants of: B2
Assay: as above
Conditions: Homo sapiens

Abundance fitness, by site and new letter:
R12: P -0.751 | D -0.403 | Q 0.036 | L -0.495 | G -0.507 | E -0.147 | V -0.112 | T -0.165 | S -0.332 | A -0.212 | F -0.574 | W -0.845 | H -0.339
S13: T 0.022 | Q 0.146 | R 0.055 | N 0.016 | W -0.033 | M -0.058 | P -0.385 | F -0.04 | G 0.035 | V -0.006 | A 0.153 | I 0.039 | K 0.085 | L 0.093 | Y 0.065 | E 0.262
Q16: W -0.539 | T -0.03 | G -0.171 | N -0.074 | C -0.299 | H -0.178 | A -0.047 | E 0.098 | M -0.013 | V -0.077 | D -0.079 | Y -0.405 | I 0.169 | R -0.104 | L -0.09 | S -0.032
M1: V -0.277 | Q -0.514 | R -0.236 | G -0.383 | H -1.03 | S -0.589 | A -0.461 | L -0.339 | F -0.179 | W -0.354 | K -0.136 | Y -0.749 | D -1.65 | E -0.08 | C -0.414 | T -0.564
V8: T 0.033 | P -0.298 | R -0.334 | Y 0.072 | M -0.04 | L -0.025 | D 0.024 | G -0.354 | A -0.077 | F -0.289 | K -0.163 | S -0.167 | C -0.146 | I -0.265 | W -0.435 | Q -0.169 | N -0.27
E14: T -0.869 | V -0.845 | G -0.743 | D -0.635 | P -0.953 | C -0.489 | W -0.942 | Y -0.634 | I -0.551 | S -0.6 | F -0.752 | A -0.34 | R -0.752 | M -0.274 | H -0.512 | L -0.311 | K -0.782
L20: F -0.353 | E -0.383 | D -0.304 | C -0.265 | A -0.352
L15: A -0.494 | P -0.312 | D -0.344 | C -0.25 | M -0.389 | Q -0.405 | Y -0.582 | K -0.651 | E -0.491 | W -1.04 | G -0.614 | R -0.815 | T -0.586
G19: A -0.369 | L -0.64 | P -0.555 | S -0.276 | Q -0.178 | I -1.12 | Y -1.04 | V -0.789 | H -0.196 | C -0.379 | T -0.521 | E -0.396 | K -0.545 | D -0.006 | R -0.444 | M -0.676
L6: V -0.425 | Y -0.46 | W -0.281 | D -0.845 | M 0.348 | H -0.496 | I -0.7 | G -0.485 | E -0.26 | S -0.476
